This is an account of results in patent publication US20250320281A1.

Bounds are passed on as bounds.

Test in all cases: cell-based or functional assay
Experiment [1] concerns the target HIV-1 envelope glycoprotein (Env) of isolate 92RW020, clade A (HIV-1).
The target of experiment [2] is HIV-1 Env of isolate MGRM-D-002 (clade D pseudovirus) (HIV-1).
The target of experiment [3] is HIV-1 envelope glycoprotein (Env) of isolate 92RW008, clade A (HIV-1).
Experiment [4] has as its target HIV-1 Env of pseudovirus MGRM-Chronic-B-017 (HIV-1).
The target in experiment [5] is HIV-1 envelope glycoprotein (Env) of isolate 93UG077, clade A (HIV-1).
The target in experiment [6] is HIV-1 Env of isolate MGRM-D-013 (clade D pseudovirus) (HIV-1).
Experiment [7] deals with HIV-1 Env of isolate MGRM-D-012 (clade D pseudovirus) (HIV-1).
Experiment [8] addresses HIV-1 Env of isolate 92UG001 (clade D pseudovirus) (HIV-1).
Experiment [9] has as its target HIV-1 envelope glycoprotein (Env) of isolate 92RW009, clade A (HIV-1).
Experiment [10] addresses HIV-1 Env of pseudovirus MGRM-G-025 (HIV-1, clade G isolate MGRM-G-025).
Experiment [11] addresses HIV-1 envelope glycoprotein (Env) of isolate 92UG031, clade A (HIV-1).
In experiment [12] the target is HIV-1 Env of isolate 93MW959 (clade C) (HIV-1 isolate 93MW959).
In experiment [13] the target is HIV-1 Env of pseudovirus MGRM-AE-008 (clade CRF01_AE) (HIV-1).
In experiment [14] the target is HIV-1 Env of pseudovirus MGRM-Chronic-B-023 (HIV-1).
Experiment [15] concerns the target HIV-1 envelope glycoprotein (Env) of isolate MGRM-A-008, clade A (HIV-1).
In experiment [16] the target is HIV-1 Env of isolate 92RW024 (clade A pseudovirus) (HIV-1).
The target in experiment [17] is HIV-1 Env of isolate TRJ0.58 (Acute), clade B, on pseudovirus (HIV-1).
The target of experiment [18] is HIV-1 Env of isolate MGRM-D-018 (clade D pseudovirus) (HIV-1).
For experiment [19], the target named is HIV-1 Env of pseudovirus MGRM-F1-004 (HIV-1).

Chain of 1443_C16 (PG16) (TCN-116) (antibody) (VH): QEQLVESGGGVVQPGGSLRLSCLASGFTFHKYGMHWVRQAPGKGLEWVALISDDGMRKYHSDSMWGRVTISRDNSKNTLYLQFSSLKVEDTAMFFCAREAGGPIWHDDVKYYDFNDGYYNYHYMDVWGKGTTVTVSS
Chain of 1443_C16 (PG16) (TCN-116) (antibody) (VL): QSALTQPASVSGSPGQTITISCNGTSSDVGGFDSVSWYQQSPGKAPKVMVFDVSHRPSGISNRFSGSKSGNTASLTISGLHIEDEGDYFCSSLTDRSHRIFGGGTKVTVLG

By IC50 is commonly meant the point on the concentration scale where inhibition reaches its midpoint. 1443_C16 (PG16) (TCN-116) (antibody): the IC50 (µg/ml), pseudovirus neutralization in experiment [1] is 0.28 µg/mL; in experiment [2], 0.01 µg/mL; in [3] it was 0.002 µg/mL; in experiment [4], 0.02 µg/mL; in experiment [5], above 50 µg/mL; in [6] it was 0.11 µg/mL. Further, the IC50 (µg/ml), pseudovirus neutralization in experiment [7] is 0.35 µg/mL; in experiment [8] it was above 50 µg/mL; in [9] it was 0.11 µg/mL; in experiment [10] it was above 50 µg/mL; in experiment [11] it was 0.43 µg/mL; in experiment [12] it was 0.007 µg/mL. Further, the IC50 (µg/ml), pseudovirus neutralization in [14] is 0.13 µg/mL; in experiment [15], above 50 µg/mL; in experiment [16] it was 0.08 µg/mL; in experiment [17], 1.16 µg/mL; in experiment [18], 0.004 µg/mL; in experiment [19], 0.43 µg/mL. The substance also came in with an IC50 in experiment [13] of 3.25 µg/mL.
2G12 (antibody): the IC50 (µg/ml), pseudovirus neutralization is 0.48 µg/mL in experiment [1]; above 50 µg/mL in experiment [2]; 22.5 µg/mL in experiment [3]; above 50 µg/mL in experiment [4]; above 50 µg/mL in experiment [5]; above 50 µg/mL in [6]. For the same substance, the IC50 (µg/ml), pseudovirus neutralization in [7] is above 50 µg/mL; in experiment [8], above 50 µg/mL; in experiment [9], 26.1 µg/mL; in [10] it was 31.9 µg/mL; in [11] it was above 50 µg/mL; in experiment [12], above 50 µg/mL. The IC50 (µg/ml), pseudovirus neutralization in experiment [14] is 0.16 µg/mL; in experiment [15], above 50 µg/mL; in [16] it was above 50 µg/mL; in [17], above 50 µg/mL; in experiment [18], 0.12 µg/mL; in [19] it was above 50 µg/mL. This substance also displayed an IC50 in experiment [13] above 50 µg/mL.
Take 4E10 (antibody): the IC50 (µg/ml), pseudovirus neutralization in experiment [1] stood at 4.54 µg/mL; in experiment [2] it was 9.44 µg/mL; in experiment [3], 14.5 µg/mL; in experiment [4], 2.77 µg/mL; in [5], 10.6 µg/mL; in [6], 5.38 µg/mL. Moreover, the IC50 (µg/ml), pseudovirus neutralization in experiment [7] was 1.13 µg/mL; in experiment [8] it was 13.6 µg/mL; in experiment [9] it was above 50 µg/mL; in experiment [10], 1.7 µg/mL; in [11], 4.94 µg/mL; in [12] it was 4.55 µg/mL. For the same substance, the IC50 (µg/ml), pseudovirus neutralization in experiment [14] amounted to 27.9 µg/mL; in experiment [15], 7.59 µg/mL; in [16], 8.88 µg/mL; in experiment [17] it was 11.9 µg/mL; in [18], 3.9 µg/mL; in experiment [19], 2.74 µg/mL. Further, the IC50 in [13] came out at 0.94 µg/mL.
As for b12 (antibody), the IC50 (µg/ml), pseudovirus neutralization is above 50 µg/mL in experiment [1]; above 50 µg/mL in [2]; 9.46 µg/mL in experiment [3]; 2.59 µg/mL in experiment [4]; 47 µg/mL in experiment [5]; above 50 µg/mL in [6]. Further, the IC50 (µg/ml), pseudovirus neutralization in experiment [7] was 0.13 µg/mL; in [8], 1.01 µg/mL; in experiment [9], above 50 µg/mL; in experiment [10], above 50 µg/mL; in [11], above 50 µg/mL; in [12], above 50 µg/mL. Further, the IC50 (µg/ml), pseudovirus neutralization in experiment [14] was above 50 µg/mL; in experiment [15] it was above 50 µg/mL; in experiment [16], above 50 µg/mL; in [17] it was above 50 µg/mL; in experiment [18], 1.39 µg/mL; in experiment [19], above 50 µg/mL. In experiment [13], this substance showed an IC50 above 50 µg/mL.
2F5 (antibody): the IC50 (µg/ml), pseudovirus neutralization in [1] is 3.36 µg/mL; in experiment [2] it was 24.6 µg/mL; in experiment [3] it was 10.4 µg/mL; in experiment [4], above 50 µg/mL; in experiment [5], 3.3 µg/mL; in experiment [6], 2.12 µg/mL. Also, the IC50 (µg/ml), pseudovirus neutralization is 1.7 µg/mL in experiment [7]; 13 µg/mL in [8]; 39.1 µg/mL in experiment [9]; above 50 µg/mL in experiment [10]; 3.81 µg/mL in experiment [11]; above 50 µg/mL in experiment [12]. In addition, the IC50 (µg/ml), pseudovirus neutralization in experiment [14] is 0.1 µg/mL; in [15], above 50 µg/mL; in experiment [16], 8.22 µg/mL; in experiment [17], above 50 µg/mL; in [18], 4.05 µg/mL; in experiment [19], 4.31 µg/mL. The substance also had an IC50 in [13] above 50 µg/mL.
With 1495_C14 (PGC14) (antibody), the IC50 (µg/ml), pseudovirus neutralization is 46 µg/mL in [1]; 29 µg/mL in experiment [2]; 37 µg/mL in [3]; above 50 µg/mL in experiment [4]; above 50 µg/mL in [5]; above 50 µg/mL in [6]. Further, the IC50 (µg/ml), pseudovirus neutralization in experiment [7], in experiment [8], in experiment [9], in experiment [10], in experiment [11] and in [12] was above 50 µg/mL in each case. The IC50 (µg/ml), pseudovirus neutralization in experiment [14], in experiment [15], in experiment [16], in experiment [17], in experiment [18] and in experiment [19] was above 50 µg/mL throughout. The substance also yielded an IC50 in [13] above 50 µg/mL.
